The text below walks through data of article doi:10.64898/2025.12.15.694324.

This assay has as its target PARP15^CAT WT, isolated catalytic domain of human PARP15, batch with His-tag (human). Briefly: native MS.

In general, stoichiometry N refers to the number of molecules, sites or subunits per partner or assembly. In the case of “PARP15^CAT WT, isolated catalytic domain of human PARP15, batch with His-tag (domain or fragment)”, the stoichiometry N worked out at 2.
